Results published in paper PMC12802916.
Substitutions are numbered along the chain they refer to.

T1: ST2/IL-33R Fc chimera (Mus musculus, UniProt P14719 27-332)
T1 sequence: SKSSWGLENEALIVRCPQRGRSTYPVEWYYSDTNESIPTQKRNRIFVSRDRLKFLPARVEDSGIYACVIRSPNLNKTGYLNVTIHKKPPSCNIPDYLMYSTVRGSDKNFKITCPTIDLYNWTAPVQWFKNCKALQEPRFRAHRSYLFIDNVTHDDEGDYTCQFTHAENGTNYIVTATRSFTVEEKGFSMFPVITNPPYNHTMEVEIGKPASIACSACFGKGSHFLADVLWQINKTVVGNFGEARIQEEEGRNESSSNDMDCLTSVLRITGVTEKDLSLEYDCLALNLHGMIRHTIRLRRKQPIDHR

B1: B RaptScore round6 2 (ssRNA)
RNA: GGGAGAACUUCGACUUGUAACAAGCUGUUUUGGAACAGCGCAUAACGAACCGUGCAGAGAUCCUC
B2: B RaptScore round6 3 (ssRNA)
RNA: B1 RNA with C50A
B3: B RaptScore round7 1 (ssRNA)
RNA: B1 RNA with A49U
B4: B RaptScore round7 3 (ssRNA)
RNA: B1 RNA with A49U, C50U

biological target: T1, ST2/IL-33R Fc chimera; test: SPR; SPR (Biacore T200): 295 mM NaCl, 5.4 mM KCl, 0.8 mM MgCl2, 18 mM CaCl2 (printed CaClCl2), 0.05% Tween 20, 20 mM Tris-HCl pH 7.6; temperature not stated. A/C: po

Point of comparison: B3, binding signal -4.12 % of B Round7 3. Against it:
- B1 — lower, -4.91 % of B Round7 3
- B2 — higher, -3.28 % of B Round7 3
- B4 — higher, -0.82 % of B Round7 3
